# Measurements taken from the supplement of paper PMC10567573.
# B1: DCAF4 (parent)
# chain: PGIDRPGMLCSFRIPGAWSCAWSL
# B2: NCF4 (parent)
# chain: FVKILKDFPEEDDPTNWLRCYYYE
# Variants of: B1
# Test: protein stability index of a GFP-peptide fusion (GPS, HEK-293T) (PSI 1-6); higher = more stable
# Conditions: c terminus: a fixed tail appended
# 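Also: lentivirally expressed fusions sorted by FACS into six bins by GFP to DsRed ratio, PSI derived from sequencing read proportions per bin multiplied by bin number.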
row,Variant,protein stability index
1,PGIDRPGMLCSFRIPGAWSCAWSE,1.38
2,PGIDRPGMLCSFRIPGAWSCAWSW,3.59
3,PGIDRPGMLCSFRIPGAWSCAWSH,2.96
4,PGIDRPGMLCSFRIPGAWSCAWSV,2.71
5,PGIDRPGMLCSFRIPGAWSCAWSY,1.96
6,PGIDRPGMLCSFRIPGAWSCAWSN,2.87
7,PGIDRPGMLCSFRIPGAWSCAWSS,2.15
8,PGIDRPGMLCSFRIPGAWSCAWSF,3.21
9,PGIDRPGMLCSFRIPGAWSCAWSK,2.42
10,PGIDRPGMLCSFRIPGAWSCAWST,3.74
11,PGIDRPGMLCSFRIPGAWSCAWSD,2.85
12,PGIDRPGMLCSFRIPGAWSCAWSQ,1.31
13,PGIDRPGMLCSFRIPGAWSCAWSA,3.62
14,PGIDRPGMLCSFRIPGAWSCAWSI,2.42
15,PGIDRPGMLCSFRIPGAWSCAWSR,1.47
16,PGIDRPGMLCSFRIPGAWSCAWSP,2.03
17,PGIDRPGMLCSFRIPGAWSCAWLL,3.01
18,PGIDRPGMLCSFRIPGAWSCAWGL,3.64
19,PGIDRPGMLCSFRIPGAWSCAWVL,2.27
20,PGIDRPGMLCSFRIPGAWSCAWTL,2.5
21,PGIDRPGMLCSFRIPGAWSCAWQL,3.24
22,PGIDRPGMLCSFRIPGAWSCAWYL,3.52
23,PGIDRPGMLCSFRIPGAWSCAWNL,2.36
24,PGIDRPGMLCSFRIPGAWSCAWIL,1.75
25,PGIDRPGMLCSFRIPGAWSCAWKL,2.47
26,PGIDRPGMLCSFRIPGAWSCAWPL,2.55
27,PGIDRPGMLCSFRIPGAWSCAWFL,2
28,PGIDRPGMLCSFRIPGAWSCAWWL,2.88

# Variants of: B2
# Test: as above
# Conditions: c terminus: a fixed tail appended
row,Variant,protein stability index
1,FVKILKDFPEEDGPTNWLRCYYYE,1.04
2,FVKILKDFPEEDEPTNWLRCYYYE,2.69
3,FVKILKDFPEEDCPTNWLRCYYYE,1.96
4,FVKILKDFPEEDFPTNWLRCYYYE,3.57
5,FVKILKDFEEEDDPTNWLRCYYYE,1.74
6,FVKILKDFDEEDDPTNWLRCYYYE,1.85
7,FVKILKDFTEEDDPTNWLRCYYYE,1.73
8,FVKILKDFNEEDDPTNWLRCYYYE,2.15
9,FVKILKDFYEEDDPTNWLRCYYYE,1.38
10,FVKILKDFMEEDDPTNWLRCYYYE,2.75
11,FVKILKDFREEDDPTNWLRCYYYE,1.6
12,FVKILKDFWEEDDPTNWLRCYYYE,1.27
13,FVKILKDFCEEDDPTNWLRCYYYE,1.26
14,FVKILKDFKEEDDPTNWLRCYYYE,1.37
15,FVKILKDFFEEDDPTNWLRCYYYE,1.1
16,FVKILKDFAEEDDPTNWLRCYYYE,2.67
17,FVKILKDFVEEDDPTNWLRCYYYE,2.21
18,FVKILKDFIEEDDPTNWLRCYYYE,1.65
19,LVKILKDFPEEDDPTNWLRCYYYE,2.17
20,PVKILKDFPEEDDPTNWLRCYYYE,2.05
21,SVKILKDFPEEDDPTNWLRCYYYE,2.55
22,AVKILKDFPEEDDPTNWLRCYYYE,1.99
23,IVKILKDFPEEDDPTNWLRCYYYE,2.09

row,Variant,protein stability index
1,MVKILKDFPEEDDPTNWLRCYYYE,2.11
2,HVKILKDFPEEDDPTNWLRCYYYE,2.7
3,NVKILKDFPEEDDPTNWLRCYYYE,2.96
4,KVKILKDFPEEDDPTNWLRCYYYE,2.68
5,VVKILKDFPEEDDPTNWLRCYYYE,2.21
6,RVKILKDFPEEDDPTNWLRCYYYE,2.25
7,TVKILKDFPEEDDPTNWLRCYYYE,2.6
8,QVKILKDFPEEDDPTNWLRCYYYE,2.56
9,WVKILKDFPEEDDPTNWLRCYYYE,3.29
10,CVKILKDFPEEDDPTNWLRCYYYE,1.46
11,FVKILKDMPEEDDPTNWLRCYYYE,3.67
12,FVKILKDRPEEDDPTNWLRCYYYE,1.69
13,FVKILKDWPEEDDPTNWLRCYYYE,3.2
14,FVKILKDKPEEDDPTNWLRCYYYE,1.8
15,FVKILKDEPEEDDPTNWLRCYYYE,1.14
16,FVKILKDYPEEDDPTNWLRCYYYE,4.09
17,FVKILKDIPEEDDPTNWLRCYYYE,1.25
18,FVKILKDQPEEDDPTNWLRCYYYE,1.67
19,FVKILKDVPEEDDPTNWLRCYYYE,2.59
20,FVKILKDLPEEDDPTNWLRCYYYE,1.15
21,FVKILKDHPEEDDPTNWLRCYYYE,3.3
22,FVKILKDCPEEDDPTNWLRCYYYE,1.25
23,FVKILKDPPEEDDPTNWLRCYYYE,1.68

row,Variant,protein stability index
1,FVKILKDSPEEDDPTNWLRCYYYE,2.92
2,FVKILKDGPEEDDPTNWLRCYYYE,1.18
3,FVKILKPFPEEDDPTNWLRCYYYE,2.49
4,FVKILKVFPEEDDPTNWLRCYYYE,2.69
5,FVKILKEFPEEDDPTNWLRCYYYE,1
6,FVKILKWFPEEDDPTNWLRCYYYE,1.07
7,FVKILKLFPEEDDPTNWLRCYYYE,2.16
8,FVKILKHFPEEDDPTNWLRCYYYE,1.77
9,FVKILKQFPEEDDPTNWLRCYYYE,1.07
10,FVKILKCFPEEDDPTNWLRCYYYE,4.49
11,FVKILDDFPEEDDPTNWLRCYYYE,1.96
12,FVKILPDFPEEDDPTNWLRCYYYE,1.56
13,FVKILRDFPEEDDPTNWLRCYYYE,1.17
14,FVKILTDFPEEDDPTNWLRCYYYE,1.95
15,FVKILFDFPEEDDPTNWLRCYYYE,2.93
16,FVKILEDFPEEDDPTNWLRCYYYE,2.5
17,FVKILQDFPEEDDPTNWLRCYYYE,1.97
18,FVKILVDFPEEDDPTNWLRCYYYE,3.01
19,FVKILSDFPEEDDPTNWLRCYYYE,3.11
20,FVKILLDFPEEDDPTNWLRCYYYE,1.96
21,FVKILNDFPEEDDPTNWLRCYYYE,3.4
22,FVKILMDFPEEDDPTNWLRCYYYE,1.65
23,FVKILIDFPEEDDPTNWLRCYYYE,1.37

row,Variant,protein stability index
1,FVKILKDFPEESDPTNWLRCYYYE,2.4
2,FVKILKDFPEEMDPTNWLRCYYYE,2.39
3,FVKILKDFPEEYDPTNWLRCYYYE,2.35
4,FVKILKDFPEEKDPTNWLRCYYYE,1.41
5,FVKILKDFPEEPDPTNWLRCYYYE,1.03
6,FVKILKDFPEEHDPTNWLRCYYYE,1.52
7,FVKILKDFPEEEDPTNWLRCYYYE,2.04
8,FVKILKDFPEETDPTNWLRCYYYE,1.37
9,FVKILKDFPEECDPTNWLRCYYYE,2.14
10,FVKILKDFPEEQDPTNWLRCYYYE,2.75
11,FVKILKDFPEEGDPTNWLRCYYYE,2.33
12,FVKIFKDFPEEDDPTNWLRCYYYE,1.86
13,FVKINKDFPEEDDPTNWLRCYYYE,1.68
14,FVKIPKDFPEEDDPTNWLRCYYYE,2.95
15,FVKIRKDFPEEDDPTNWLRCYYYE,2.09
16,FVKIIKDFPEEDDPTNWLRCYYYE,1.6
17,FVKIHKDFPEEDDPTNWLRCYYYE,3.08
18,FVKIAKDFPEEDDPTNWLRCYYYE,1.02
19,FVKIWKDFPEEDDPTNWLRCYYYE,1.06
20,FVKITKDFPEEDDPTNWLRCYYYE,2.17
21,FVKIYKDFPEEDDPTNWLRCYYYE,2.23
22,FVKIEKDFPEEDDPTNWLRCYYYE,1.96
23,FVKIDKDFPEEDDPTNWLRCYYYE,2.1

row,Variant,protein stability index
1,FVKILKDFPEMDDPTNWLRCYYYE,1.01
2,FVKILKDFPEKDDPTNWLRCYYYE,1.39
3,FVKILKDFPEQDDPTNWLRCYYYE,2.98
4,FVKILKDFPELDDPTNWLRCYYYE,2.74
5,FVKILKDFPEADDPTNWLRCYYYE,1.68
6,FVKILKDFPEYDDPTNWLRCYYYE,1.96
7,FVKILKDFPERDDPTNWLRCYYYE,1.75
8,FVKILKDFPEIDDPTNWLRCYYYE,2.4
9,FVKILKDFPETDDPTNWLRCYYYE,2.96
10,FVKILKDFPESDDPTNWLRCYYYE,1.71
11,FVKILKDFPEFDDPTNWLRCYYYE,3.95
12,FVKILKDFPEDDDPTNWLRCYYYE,1.88
13,FVKILKDFPEHDDPTNWLRCYYYE,3.15
14,FVKILKDFPEWDDPTNWLRCYYYE,2.04
15,FRKILKDFPEEDDPTNWLRCYYYE,2.38
16,FPKILKDFPEEDDPTNWLRCYYYE,2.82
17,FHKILKDFPEEDDPTNWLRCYYYE,1.57
18,FIKILKDFPEEDDPTNWLRCYYYE,1.46
19,FCKILKDFPEEDDPTNWLRCYYYE,1.95
20,FQKILKDFPEEDDPTNWLRCYYYE,3.03
21,FTKILKDFPEEDDPTNWLRCYYYE,2.4
22,FGKILKDFPEEDDPTNWLRCYYYE,2.24
23,FMKILKDFPEEDDPTNWLRCYYYE,1.96

row,Variant,protein stability index
1,FEKILKDFPEEDDPTNWLRCYYYE,3.02
2,FAKILKDFPEEDDPTNWLRCYYYE,1.88
3,FSKILKDFPEEDDPTNWLRCYYYE,1.62
4,FWKILKDFPEEDDPTNWLRCYYYE,3.35
5,FLKILKDFPEEDDPTNWLRCYYYE,1.76
6,FDKILKDFPEEDDPTNWLRCYYYE,2.05
7,FNKILKDFPEEDDPTNWLRCYYYE,2.11
8,FKKILKDFPEEDDPTNWLRCYYYE,2.16
9,FYKILKDFPEEDDPTNWLRCYYYE,2.08
10,FVKILKDFPAEDDPTNWLRCYYYE,1.47
11,FVKILKDFPMEDDPTNWLRCYYYE,2.93
12,FVKILKDFPIEDDPTNWLRCYYYE,3.14
13,FVKILKDFPTEDDPTNWLRCYYYE,2.6
14,FVKILKDFPREDDPTNWLRCYYYE,1.7
15,FVKILKDFPQEDDPTNWLRCYYYE,2.48
16,FVKILKDFPVEDDPTNWLRCYYYE,1.62
17,FVKILKDFPSEDDPTNWLRCYYYE,1.77
18,FVKILKDFPDEDDPTNWLRCYYYE,1.16
19,FVEILKDFPEEDDPTNWLRCYYYE,2
20,FVNILKDFPEEDDPTNWLRCYYYE,2.31
21,FVSILKDFPEEDDPTNWLRCYYYE,2.32
22,FVHILKDFPEEDDPTNWLRCYYYE,1.43
23,FVQILKDFPEEDDPTNWLRCYYYE,2.05

row,Variant,protein stability index
1,FVYILKDFPEEDDPTNWLRCYYYE,1.01
2,FVPILKDFPEEDDPTNWLRCYYYE,2.45
3,FVRILKDFPEEDDPTNWLRCYYYE,1.17
4,FVCILKDFPEEDDPTNWLRCYYYE,1.26
5,FVTILKDFPEEDDPTNWLRCYYYE,2.48
6,FVDILKDFPEEDDPTNWLRCYYYE,2.11
7,FVAILKDFPEEDDPTNWLRCYYYE,2.19
8,FVKWLKDFPEEDDPTNWLRCYYYE,3.72
9,FVKMLKDFPEEDDPTNWLRCYYYE,2.39
10,FVKSLKDFPEEDDPTNWLRCYYYE,2.7
11,FVKHLKDFPEEDDPTNWLRCYYYE,2.17
12,FVKTLKDFPEEDDPTNWLRCYYYE,1.54
13,FVKKLKDFPEEDDPTNWLRCYYYE,3.09
14,FVKQLKDFPEEDDPTNWLRCYYYE,2.15
15,FVKLLKDFPEEDDPTNWLRCYYYE,2.02
16,FVKALKDFPEEDDPTNWLRCYYYE,1.61
17,FVKELKDFPEEDDPTNWLRCYYYE,1.65
18,FVKGLKDFPEEDDPTNWLRCYYYE,1.9
19,FVKFLKDFPEEDDPTNWLRCYYYE,3.08
20,FVKPLKDFPEEDDPTNWLRCYYYE,2.15
21,FVKNLKDFPEEDDPTNWLRCYYYE,2.76
22,FVKDLKDFPEEDDPTNWLRCYYYE,1.25
